Assay results reported in PMC10802294 (bioRxiv, 2024).
Side chains are listed from the residue outwards. Ends that are not written are not given here. * marks the point of attachment. Biotin = O=C1N[C@H]2[C@H](CS[C@H]2CCCCC(=O)*)N1; RADP = not defined here; Aoa = not defined here

Assays:
[1] = target: SARS-CoV-2 Mac1 protein (WT) (SARS-CoV-2, UniProt P0DTC1 1023-1197); assay: AlphaScreen or HTRF
[2] = target: MERS-CoV Mac1 protein (WT) (MERS-CoV, UniProt K9N638 1110-1273); assay: AlphaScreen or HTRF
Chain of MERS-CoV Mac1 protein (WT) (K9N638 1110-1273): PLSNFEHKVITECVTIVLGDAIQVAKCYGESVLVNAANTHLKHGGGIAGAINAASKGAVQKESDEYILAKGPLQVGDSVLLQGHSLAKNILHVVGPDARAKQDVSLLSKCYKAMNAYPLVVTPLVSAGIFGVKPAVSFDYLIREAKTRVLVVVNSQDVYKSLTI

ARTK(Biotin)QTARK([Aoa-RADP])S (reading uncertain) [10 amino acid biotinylated and ADP-ribosylated peptide [ARTK(Bio)QTARK(Aoa-RADP)S]]: binds [1]; binds [2].
